Values joined by “and” are separate entries in the source; they are usually repeats but may differ in a detail not shown here. Identical values can stand only once.
Columns and labels:
human CD40L = molecular target: T1, human CD40L (human, UniProt P29965 113-261, limits assumed); assay: SPR (ProteOn XPR36), target immobilized
T1 sequence (looked up): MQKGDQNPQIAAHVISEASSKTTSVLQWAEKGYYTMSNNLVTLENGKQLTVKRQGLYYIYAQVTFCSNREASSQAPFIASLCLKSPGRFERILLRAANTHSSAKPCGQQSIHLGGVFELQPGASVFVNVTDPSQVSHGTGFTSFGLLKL

human TNFβ = molecular target: T2, human TNFβ (human, UniProt P01374 35-205); assay: SPR (ProteOn XPR36), target immobilized
T2 construct: the result sentence prints TNF; also called hTNFβ
T2 sequence (looked up): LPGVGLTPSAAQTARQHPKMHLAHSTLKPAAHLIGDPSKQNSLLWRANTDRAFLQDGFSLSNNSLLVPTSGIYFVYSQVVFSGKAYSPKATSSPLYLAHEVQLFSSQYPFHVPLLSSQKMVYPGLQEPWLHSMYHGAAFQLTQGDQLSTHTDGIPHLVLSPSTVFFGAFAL

human IL27 = molecular target: T3, human IL27 (human, UniProt Q8NEV9 29-243; Q14213 21-229); assay: SPR (ProteOn XPR36), target immobilized
T3 sequence (looked up) 1: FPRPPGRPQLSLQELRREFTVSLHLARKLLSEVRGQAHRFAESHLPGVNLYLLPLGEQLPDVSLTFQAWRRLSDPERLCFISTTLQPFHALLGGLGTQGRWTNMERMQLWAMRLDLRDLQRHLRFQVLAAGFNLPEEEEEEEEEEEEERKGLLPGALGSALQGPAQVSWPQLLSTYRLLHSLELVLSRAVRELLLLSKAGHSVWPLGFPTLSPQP
T3 sequence (looked up) 2: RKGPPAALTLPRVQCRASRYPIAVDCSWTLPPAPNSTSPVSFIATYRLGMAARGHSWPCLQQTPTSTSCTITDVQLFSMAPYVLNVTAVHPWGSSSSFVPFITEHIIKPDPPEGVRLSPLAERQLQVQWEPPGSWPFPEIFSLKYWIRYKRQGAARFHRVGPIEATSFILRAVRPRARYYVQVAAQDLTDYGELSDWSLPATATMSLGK

human oncostatin M = molecular target: T4, human oncostatin M (human, UniProt P13725 26-221, limits assumed); assay: SPR (ProteOn XPR36), target immobilized
T4 construct: also called OSM
T4 sequence (looked up): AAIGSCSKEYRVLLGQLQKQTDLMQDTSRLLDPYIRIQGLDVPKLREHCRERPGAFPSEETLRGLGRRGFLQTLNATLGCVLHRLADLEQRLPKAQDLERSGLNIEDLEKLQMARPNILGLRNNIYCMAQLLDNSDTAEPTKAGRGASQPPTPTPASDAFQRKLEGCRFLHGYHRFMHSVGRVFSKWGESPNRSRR

human FASL = molecular target: T5, human FASL (human, UniProt P48023 134-281, limits assumed); assay: SPR (ProteOn XPR36), target immobilized
T5 construct: also called hFASL
T5 sequence (looked up): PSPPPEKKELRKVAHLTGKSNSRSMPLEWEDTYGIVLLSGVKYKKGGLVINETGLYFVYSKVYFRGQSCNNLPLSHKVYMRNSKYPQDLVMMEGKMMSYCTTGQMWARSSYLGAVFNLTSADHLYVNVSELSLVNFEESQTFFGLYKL

human TL-1A = molecular target: T6, human TL-1A (human, UniProt O95150 72-251); assay: SPR (ProteOn XPR36), target immobilized
T6 construct: also called hTL-1A
T6 sequence (looked up): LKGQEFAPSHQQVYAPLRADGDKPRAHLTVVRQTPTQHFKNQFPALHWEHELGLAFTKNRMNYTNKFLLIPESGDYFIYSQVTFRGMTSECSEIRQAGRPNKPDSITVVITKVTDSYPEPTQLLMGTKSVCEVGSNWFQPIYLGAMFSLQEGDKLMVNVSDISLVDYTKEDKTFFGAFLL

human CD30L = molecular target: T7, human CD30L (human, UniProt P32971 63-234, limits assumed); assay: SPR (ProteOn XPR36), target immobilized
T7 sequence (looked up): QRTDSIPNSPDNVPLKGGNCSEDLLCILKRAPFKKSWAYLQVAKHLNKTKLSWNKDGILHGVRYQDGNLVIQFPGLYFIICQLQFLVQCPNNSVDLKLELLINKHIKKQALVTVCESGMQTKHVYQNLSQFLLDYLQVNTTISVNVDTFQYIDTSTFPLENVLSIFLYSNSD

[1] = molecular target: T8, human membrane TNFα expressed on HEK293H cells (human, UniProt P01375 1-233); assay: flow cytometry, HEK293H cells expressing human membrane TNFα, with 30 µM HSA, 24 h
T8 construct: whole, on cells; also called membrane expressed TNFα
T8 sequence (P01375 whole entry): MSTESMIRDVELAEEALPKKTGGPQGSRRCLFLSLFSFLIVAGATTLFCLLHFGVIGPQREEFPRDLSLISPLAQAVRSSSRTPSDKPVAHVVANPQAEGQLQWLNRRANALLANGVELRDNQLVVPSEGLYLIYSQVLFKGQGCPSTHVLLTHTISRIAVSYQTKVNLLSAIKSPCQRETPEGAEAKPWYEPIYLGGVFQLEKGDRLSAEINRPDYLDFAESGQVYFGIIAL
Procedure: (§1) Briefly, cells were fixed with 4% paraformaldehyde and 0.1% glutaraldehyde in PBS (to increase detection of membrane bound TNFα). […] Cells were washed 3 times and subsequently incubated with an anti-VHH mAb (ABH00119) for 30 min at 4° C., washed again, and incubated for 30 min at 4° C. with a goat anti-mouse or anti-human PE labeled antibody. Samples were washed and resuspended in FACS Buffer (D-PBS with 10% FBS and 0.05% sodium azide supplemented with 5 nM TOPRO3). Cell suspensions were then analyzed on an iQuescreener. EC50 values were calculated using GraphPad Prism.

cyno IL-6 [2] = molecular target: T9, cyno IL-6 (cynomolgus monkey, UniProt P79341 28-212, limits assumed); assay: cell-based or functional assay
T9 sequence (looked up): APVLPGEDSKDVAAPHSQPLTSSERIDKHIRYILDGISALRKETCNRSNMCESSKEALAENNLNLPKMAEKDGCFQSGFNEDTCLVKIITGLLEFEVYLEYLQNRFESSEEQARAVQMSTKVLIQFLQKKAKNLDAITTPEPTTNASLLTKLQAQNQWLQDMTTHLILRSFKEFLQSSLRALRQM

[3] = molecular target: T8, human membrane TNFα expressed on …; assay: flow cytometry, HEK293H cells expressing human membrane TNFα, without HSA, 24 h
Procedure: as §1

human TNF-α = human TNF-α (human, UniProt P01375 77-233); assay: cell-based or functional assay
human TNF-α, sequence (P01375 77-233 limits assumed): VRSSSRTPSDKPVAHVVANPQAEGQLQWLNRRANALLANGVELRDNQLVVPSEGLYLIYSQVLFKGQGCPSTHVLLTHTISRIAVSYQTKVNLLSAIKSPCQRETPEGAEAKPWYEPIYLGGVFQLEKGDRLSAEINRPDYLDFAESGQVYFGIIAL

human IL-6 = human IL-6 (human, UniProt P05231 30-212); assay: cell-based or functional assay
cyno IL-6 [4] = molecular target: T9, cyno IL-6; assay: cell-based or functional assay; remark: listed apart in the source
cyno TNF-α = cyno TNF-α (cynomolgus monkey, UniProt P79337 77-233); assay: cell-based or functional assay
cyno TNF-α, sequence (P79337 77-233 limits assumed): as the sequence (P01375 77-233 limits assumed) above, with L37V, R44T, T72N, R138L counted along it

B1: F027201062 (bispecific antibody)
chain: DVQLVESGGGVVQPGGSLRLSCAASGRTFSNYAMAWFRQAPGKEREFVAVISYAGGRTYYADSVKGRFTISRDNAKNTVYLQMNSLRPEDTALYYCAAVDSPLIATHPRGYDYWGQGTLVTVSSGGGGSGGGSEVQLVESGGGVVQPGGSLRLSCAASGFTFRSFGMSWVRQAPGKGPEWVSSISGSGSDTLYADSVKGRFTISRDNSKNTLYLQMNSLRPEDTALYYCTIGGSLSRSSQGTLVTVSSGGGGSGGGSEVQLVESGGGVVQPGGSLRLSCAASGFTLAYYAIGWFRQAPGKEREGVSCISGSVGTTYYADSVKGRFTISRDNAKNTVYLQMNSLRPEDTALYYCVRSSWFDCGVQGRDLGNEYDYRGQGTLVTVSSGGGGSGGGSEVQLVESGGGVVQPGGSLRLSCTASGFTFSTADMGWFRQAPGKGREFVARISGIDGTTYYDEPVKGRFTISRDNSKNTVYLQMNSLRPEDTALYYCRSPRYADQWSAYDYWGQGTLVKVSSA
notes: anti-IL-6 (17C04, 6B12), anti-HSA (ALB23002), anti-TNF-α (6C11), C-terminal alanine; produced in Pichia pastoris; also called ISVD construct F027201062; Nanobody F027201062
Human CD40L
  binding result: no binding (tested: 300 nM)
Human TNFβ
  binding result: no binding (tested: 300 nM)
Human IL27
  binding result: no binding (tested: 300 nM)
Human oncostatin M
  binding result: no binding (tested: 300 nM)
Human FASL
  binding result: no binding (tested: 300 nM)
Human TL-1A
  binding result: no binding (tested: 300 nM)
Human CD30L
  binding result: no binding (tested: 300 nM)
[1]
  EC50: 0.31 nM and 0.29 nM and 0.36 nM
Cyno IL-6 [2]
  IC50, IL-6 induced TF-1 proliferation: 0.0646 nM and 0.0592 nM and 0.0434 nM
[3]
  EC50: 0.12 nM and 0.18 nM and 0.17 nM
Human TNF-α
  Ratio IC50 reference anti-TNF-α mAb/Nb: 0.67 ratio
  hTNF-α Nfkb assay (IC50, pM): 98 pM
Human IL-6
  Ratio IC50 reference anti-IL-6 mAb1/Nb: 2.4 ratio
  hIL-6 TF1 proliferation assay (IC50, pM): 134 pM
Cyno IL-6 [4]
  cyno IL-6 TF1 proliferation assay (IC50, pM): 65 pM
Cyno TNF-α
  cyno TNF-α NFkb assay (IC50, pM): 193 pM

Source: patent US20240301049A1 (Ablynx, published 2024)
